Assay results: US9005963B2, “Amino acid sequences directed against cellular receptors for viruses and bacteria” (Ablynx N.V., priority 2008, dated 2015)
Marks after values point to notes of the source that are not given here.

Legend:
[1] = target: T1, CXCR4 (Homo sapiens, UniProt P61073); assay: Competition binding with [125I]-CXCL12 on membranes from HEK293T cells transiently expressing CXCR4; set-up: expressed in transfected cells; host or cells: HEK293T, transient (pcDNA3.1-CXCR4); displacement of specifically bound [125I]-CXCL12 (in words): dose or concentration left out as unconfirmed; conditions: for pKi ([125I]-CXCL12): HEK293T-CXCR4 membranes; for Displacem. (%) of [125I]-CXCL12: maximal displacement, a: no significant displacement at 0.5 μM, b/c(B-6): maximum not reached, displacement at 0.5 μM
Procedure: (§1) Membranes from HEK293T cells transiently expressing CXCR3 or CXCR4 were prepared 48 h after transfection as follows. Cells were washed and scraped from the cell culture dishes with ice-cold PBS containing 1 mm EDTA. The scraped cells were pelleted at 1500×g for 10 min at 4° C. The pellet was washed and then resuspended in ice-cold membrane buffer (15 mM Tris, pH 7.5, 1 mM EGTA, 0.3 mM EDTA, and 2 mM MgCl2). The cell suspension was homogenized by 10 strokes at 1200 rpm using a Teflon-glass homogenizer and rotor and further subjected to three freeze-thaw cycles using liquid nitrogen. Membranes were separated by centrifugation at 40,000 g for 25 min at 4° C. The membrane pellet was washed and resuspended in ice-cold Tris-sucrose buffer (20 mM Tris, pH 7.4, and 250 mM sucrose) and frozen in liquid nitrogen. The total protein was determined using a Bradford assay (Bio-Rad).
Membranes were then harvested over polyethylenimine (0.5%)-treated Whatman GF/C filter plates and washed three times with ice cold binding buffer containing 500 mM NaCl. Plates were counted by liquid scintillation. […]

[2] = target: T1, CXCR4; assay: Competition binding with [125I]-238D2 on membranes from HEK293T cells transiently expressing CXCR4; set-up: expressed in transfected cells; host or cells: HEK293T, transient (pcDNA3.1-CXCR4)
Procedure: as §1
(§2) Membranes were then harvested over polyethylenimine (0.5%)-treated Whatman GF/C filter plates and washed three times with ice cold binding buffer containing 500 mM NaCl. Plates were counted by liquid scintillation.

[3] = target: T1, CXCR4; assay: Competition binding with [125I]-238D4 on membranes from HEK293T cells transiently expressing CXCR4; set-up: expressed in transfected cells; host or cells: HEK293T, transient (pcDNA3.1-CXCR4)
Procedure: as §1, §2

[4] = target: T1, CXCR4; assay: Binding of 125I-labeled Nanobodies to membranes from HEK293T cells expressing CXCR4 compared to CXCR3; set-up: expressed in transfected cells; host or cells: HEK293T, transient (pcDNA3.1-CXCR4)
Procedure: as §1
Periplasmas (1:10) or ligands were pre-incubated with membranes in binding buffer (50 mM HEPES (pH 7.4), 1 mM CaCl2, 5 mM MgCl2, 100 mM NaCl, 0.5% bovine serum albumin) supplemented with 0.5% BSA for 1 h at 22° C. before the addition of [^125I]-CXCL12 (40 pM) or [^125I]-238D2 (3 nM) or [^125I]-238D4 (3 nM) for additional 2 h at 22° C. […] Plates were counted by liquid scintillation.

[5] = 238C5 only at high concentrations (≧100 nM)
[6] = maximal displacement, a: no significant displacement at 0.5 μM, b: displacement at 0.5 μM

T1 sequence (P61073 whole entry): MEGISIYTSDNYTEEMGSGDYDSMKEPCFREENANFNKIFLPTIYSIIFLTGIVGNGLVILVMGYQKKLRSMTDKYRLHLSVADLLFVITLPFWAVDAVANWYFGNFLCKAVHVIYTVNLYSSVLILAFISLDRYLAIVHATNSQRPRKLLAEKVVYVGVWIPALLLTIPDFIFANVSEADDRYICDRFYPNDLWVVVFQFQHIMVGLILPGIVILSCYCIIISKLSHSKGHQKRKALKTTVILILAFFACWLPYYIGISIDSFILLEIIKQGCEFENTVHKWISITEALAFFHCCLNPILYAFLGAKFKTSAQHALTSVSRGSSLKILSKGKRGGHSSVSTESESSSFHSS

B1: 237D2: selected Nanobody, SEQ ID NO: 241 (protein)
VHH: EVQLVESGGGLVQPGGSLRLSCAASGFTFDDYAMSWVRQAPGKGLEWVSAISWNGGSTDYADSVKGRFTISRDNAKNTLYLQMNSLKSEDTAEYYCARDQGPFYSGTYYYTRQYGYRGQGTQVTVSS
modifications: Nanobodies
[1]
  pKi ([125I]-CXCL12): <6.3
  Displacem. (%) of [125I]-CXCL12: 0^a %
[1]; purified Nanobodies
  displacement of specifically bound [125I]-CXCL12 (in words): unable to displace
[2]; [5]
  displacement of [125I]-238D2 (in words): unable to inhibit
[2]; HEK293T-CXCR4 membranes
  pKi ([125I]-238D2): <6.3
[2]; [6]
  Displacem. (%) of [125I]-238D2: 0^a %
[3]; [5]
  displacement of [125I]-238D4 (in words): unable to inhibit
[3]; HEK293T-CXCR4 membranes
  pKi ([125I]-238D4): <6.3
[3]; [6]
  Displacem. (%) of [125I]-238D4: 0^a %

B2: [^125I]-238D2: 125I-labeled NANOBODY 238D2 for competition binding studies (protein)
VHH: EVQLVESGGGLVQTGGSLRLSCAASGFTFSSYAMSWVRQAPGKGLEWVSGIKSSGDSTRYAGSVKGRFTISRDNAKNMLYLQMYSLKPEDTAVYYCAKSRVSRTGLYTYDNRGQGTQVTVSS
[4]
  binding to CXCR4 membranes compared to CXCR3 membranes: selectively bound

B3: [^125I]-238D4: 125I-labeled NANOBODY 238D4 for competition binding studies (protein)
VHH: EVQLMESGGGLVQAGGSLRLSCAASGRTFNNYAMGWFRRAPGKEREFVAAITRSGVRSGVSAIYGDSVKDRFTISRDNAKNTLYLQMNSLKPEDTAVYTCAASAIGSGALRRFEYDYSGQGTQVTVSS
[4]
  binding to CXCR4 membranes compared to CXCR3 membranes: selectively bound

B4: 238D2-20GS-238C5: bivalent Nanobody, SEQ ID NO: 265 (protein)
chain: EVQLVESGGGLVQTGGSLRLSCAASGFTFSSYAMSWVRQAPGKGLEWVSGIKSSGDSTRYAGSVKGRFTISRDNAKNMLYLQMYSLKPEDTAVYYCAKSRVSRTGLYTYDNRGQGTQVTVSSGGGGSGGGGSGGGGSGGGGSEVQLMESGGGLVQAGGSLRLACAASGFTFEDYAIGWFRKAPGKEREGVSCISGSDGSTTYADSVKGRFTISTDNAKNTVYLEMNSLKPEDTAVYYCAQQYGVGGRVVCPGPYEYDVWGQGTQVTVSS
modifications: Nanobodies
[1]
  pKi ([125I]-CXCL12): 7.35 ± 0.07
  Displacem. (%) of [125I]-CXCL12: 110 ± 2%
[1]; [125I]-CXCL12 displacement affinity, fold
  Rel. potency, relative to monovalent 238D2: 0.18^a
